# Numbered stars: 1 amine (or outer) side, 2 acyl side, 3 side chain; on linkers, the order of the positions; unused ones are H or OH. Bridge positions count the residues as written; N and C are the ends. Side chains are listed from the residue outwards. Ends that are not written are not given here. * marks the point of attachment. C20 diacid = O=C(O)CCCCCCCCCCCCCCCCCCC(=O)*; γGlu = O=C(O)[C@H](CCC(=O)[*:2])N[*:1]
# T1: human amylin receptor (amylin 3(a) receptor: human calcitonin receptor plus RAMP-3) (human, UniProt P30988 25-474; O60896 24-148, limits assumed)
# T1 sequence (looked up) 1: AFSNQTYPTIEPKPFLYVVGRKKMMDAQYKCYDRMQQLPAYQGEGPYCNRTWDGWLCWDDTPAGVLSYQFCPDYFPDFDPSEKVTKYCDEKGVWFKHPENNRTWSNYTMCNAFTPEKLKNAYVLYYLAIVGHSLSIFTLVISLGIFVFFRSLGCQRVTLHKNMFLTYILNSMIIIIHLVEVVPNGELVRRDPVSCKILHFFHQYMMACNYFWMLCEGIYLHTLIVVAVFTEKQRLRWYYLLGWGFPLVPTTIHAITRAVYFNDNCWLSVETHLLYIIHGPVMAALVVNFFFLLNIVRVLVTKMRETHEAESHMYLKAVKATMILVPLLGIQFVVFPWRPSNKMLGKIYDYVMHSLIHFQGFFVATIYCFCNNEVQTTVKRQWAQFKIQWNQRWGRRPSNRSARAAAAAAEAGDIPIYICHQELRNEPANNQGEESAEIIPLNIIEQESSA
# T1 sequence (looked up) 2: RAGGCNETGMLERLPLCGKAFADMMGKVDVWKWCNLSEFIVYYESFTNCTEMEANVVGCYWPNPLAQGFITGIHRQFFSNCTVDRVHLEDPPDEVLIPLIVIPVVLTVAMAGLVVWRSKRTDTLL
# T2: human calcitonin receptor (human, UniProt P30988 25-474)
# T2 sequence (looked up): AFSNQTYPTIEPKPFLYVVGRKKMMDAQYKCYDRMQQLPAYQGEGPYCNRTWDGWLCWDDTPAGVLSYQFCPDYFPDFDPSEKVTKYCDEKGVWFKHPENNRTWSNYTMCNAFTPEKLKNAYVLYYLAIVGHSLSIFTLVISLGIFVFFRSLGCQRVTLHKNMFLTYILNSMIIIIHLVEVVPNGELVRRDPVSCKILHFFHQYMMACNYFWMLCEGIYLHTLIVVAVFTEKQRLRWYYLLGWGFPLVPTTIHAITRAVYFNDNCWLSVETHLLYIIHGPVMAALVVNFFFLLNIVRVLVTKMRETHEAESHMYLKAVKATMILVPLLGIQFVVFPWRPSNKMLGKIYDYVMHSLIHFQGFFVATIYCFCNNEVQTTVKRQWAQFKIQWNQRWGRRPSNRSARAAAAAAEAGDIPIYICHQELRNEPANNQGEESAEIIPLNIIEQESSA
# Legend:
# [1] = target: T1, human amylin receptor (amylin 3(a) …); test: cell-based or functional assay
# [2] = target: T2, human calcitonin receptor; test: cell-based or functional assay
Binder,hAmylin-R funct. EC50 [1],Ratio hCT/hAmylin funct. (hCTR EC50 against hAmylin-R EC50) [2],hCTR funct. EC50 [2]
"K([γGlu-C20 diacid])CNTATCATQRLANFLRHSSPNFGAIPSSTNVGSKTY-NH2 (disulfide 2-7; N-terminus assumed; SMILES CC[C@H](C)[C@H](NC(=O)[C@H](C)NC(=O)CNC(=O)[C@H](Cc1ccccc1)NC(=O)[C@H](CC(N)=O)NC(=O)[C@@H]1CCCN1C(=O)[C@H](CO)NC(=O)[C@H](CO)NC(=O)[C@H](Cc1c[nH]cn1)NC(=O)[C@H](CCCNC(=N)N)NC(=O)[C@H](CC(C)C)NC(=O)[C@H](Cc1ccccc1)NC(=O)[C@H](CC(N)=O)NC(=O)[C@H](C)NC(=O)[C@H](CC(C)C)NC(=O)[C@H](CCCNC(=N)N)NC(=O)[C@H](CCC(N)=O)NC(=O)[C@@H](NC(=O)[C@H](C)NC(=O)[C@@H]1CSSC[C@H](NC(=O)[C@@H](N)CCCCNC(=O)CC[C@H](NC(=O)CCCCCCCCCCCCCCCCCCC(=O)O)C(=O)O)C(=O)N[C@@H](CC(N)=O)C(=O)N[C@@H]([C@@H](C)O)C(=O)N[C@@H](C)C(=O)N[C@@H]([C@@H](C)O)C(=O)N1)[C@@H](C)O)C(=O)N1CCC[C@H]1C(=O)N[C@@H](CO)C(=O)N[C@@H](CO)C(=O)N[C@H](C(=O)N[C@@H](CC(N)=O)C(=O)N[C@H](C(=O)NCC(=O)N[C@@H](CO)C(=O)N[C@@H](CCCCN)C(=O)N[C@H](C(=O)N[C@@H](Cc1ccc(O)cc1)C(N)=O)[C@@H](C)O)C(C)C)[C@@H](C)O, also called compound 35) [N^ε1-[(4S)-4-carboxy-4-(19-carboxynonadecanoylamino)butanoyl]-[Arg17,Pro21,Pro27,Lys35]-h-amylin]",0.364 nM,15,5.46 nM
"{C20 diacid-γGlu}-KCNTATCATQRLAEFLRHSSPNFGAIPSSTNVGKNTY-NH2 (disulfide 2-7; SMILES CC[C@H](C)[C@H](NC(=O)[C@H](C)NC(=O)CNC(=O)[C@H](Cc1ccccc1)NC(=O)[C@H](CC(N)=O)NC(=O)[C@@H]1CCCN1C(=O)[C@H](CO)NC(=O)[C@H](CO)NC(=O)[C@H](Cc1c[nH]cn1)NC(=O)[C@H](CCCNC(=N)N)NC(=O)[C@H](CC(C)C)NC(=O)[C@H](Cc1ccccc1)NC(=O)[C@H](CCC(=O)O)NC(=O)[C@H](C)NC(=O)[C@H](CC(C)C)NC(=O)[C@H](CCCNC(=N)N)NC(=O)[C@H](CCC(N)=O)NC(=O)[C@@H](NC(=O)[C@H](C)NC(=O)[C@@H]1CSSC[C@H](NC(=O)[C@H](CCCCN)NC(=O)CC[C@H](NC(=O)CCCCCCCCCCCCCCCCCCC(=O)O)C(=O)O)C(=O)N[C@@H](CC(N)=O)C(=O)N[C@@H]([C@@H](C)O)C(=O)N[C@@H](C)C(=O)N[C@@H]([C@@H](C)O)C(=O)N1)[C@@H](C)O)C(=O)N1CCC[C@H]1C(=O)N[C@@H](CO)C(=O)N[C@@H](CO)C(=O)N[C@H](C(=O)N[C@@H](CC(N)=O)C(=O)N[C@H](C(=O)NCC(=O)N[C@@H](CCCCN)C(=O)N[C@@H](CC(N)=O)C(=O)N[C@H](C(=O)N[C@@H](Cc1ccc(O)cc1)C(N)=O)[C@@H](C)O)C(C)C)[C@@H](C)O, also called compound 36)",0.189 nM,6.8,1.28 nM
"K([γGlu-γGlu-C20 diacid])CNTATCATQRLADFLRHSSPNFGAIPSSTNVGSDTY-NH2 (disulfide 2-7; N-terminus assumed; SMILES CC[C@H](C)[C@H](NC(=O)[C@H](C)NC(=O)CNC(=O)[C@H](Cc1ccccc1)NC(=O)[C@H](CC(N)=O)NC(=O)[C@@H]1CCCN1C(=O)[C@H](CO)NC(=O)[C@H](CO)NC(=O)[C@H](Cc1c[nH]cn1)NC(=O)[C@H](CCCNC(=N)N)NC(=O)[C@H](CC(C)C)NC(=O)[C@H](Cc1ccccc1)NC(=O)[C@H](CC(=O)O)NC(=O)[C@H](C)NC(=O)[C@H](CC(C)C)NC(=O)[C@H](CCCNC(=N)N)NC(=O)[C@H](CCC(N)=O)NC(=O)[C@@H](NC(=O)[C@H](C)NC(=O)[C@@H]1CSSC[C@H](NC(=O)[C@@H](N)CCCCNC(=O)CC[C@H](NC(=O)CC[C@H](NC(=O)CCCCCCCCCCCCCCCCCCC(=O)O)C(=O)O)C(=O)O)C(=O)N[C@@H](CC(N)=O)C(=O)N[C@@H]([C@@H](C)O)C(=O)N[C@@H](C)C(=O)N[C@@H]([C@@H](C)O)C(=O)N1)[C@@H](C)O)C(=O)N1CCC[C@H]1C(=O)N[C@@H](CO)C(=O)N[C@@H](CO)C(=O)N[C@H](C(=O)N[C@@H](CC(N)=O)C(=O)N[C@H](C(=O)NCC(=O)N[C@@H](CO)C(=O)N[C@@H](CC(=O)O)C(=O)N[C@H](C(=O)N[C@@H](Cc1ccc(O)cc1)C(N)=O)[C@@H](C)O)C(C)C)[C@@H](C)O, also called compound 2)",0.182 nM,16.4,3 nM
"KCNTATCATQRLAEFLRHSSPNFGAIPSSTNVGSNTY (C20 diacid-gGlu-2xOEG on the alpha amino group of the N-terminal residue; Cys2-Cys7 disulfide and C-terminal amide as in human amylin, also called compound 19)",0.307 nM,17.4,5.32 nM
"K([γGlu-C20 diacid])RCNTATCATQRLANFLRHSSPNFGAIPSSTNVGSHTY-NH2 (disulfide 3-8; N-terminus assumed; SMILES CC[C@H](C)[C@H](NC(=O)[C@H](C)NC(=O)CNC(=O)[C@H](Cc1ccccc1)NC(=O)[C@H](CC(N)=O)NC(=O)[C@@H]1CCCN1C(=O)[C@H](CO)NC(=O)[C@H](CO)NC(=O)[C@H](Cc1c[nH]cn1)NC(=O)[C@H](CCCNC(=N)N)NC(=O)[C@H](CC(C)C)NC(=O)[C@H](Cc1ccccc1)NC(=O)[C@H](CC(N)=O)NC(=O)[C@H](C)NC(=O)[C@H](CC(C)C)NC(=O)[C@H](CCCNC(=N)N)NC(=O)[C@H](CCC(N)=O)NC(=O)[C@@H](NC(=O)[C@H](C)NC(=O)[C@@H]1CSSC[C@H](NC(=O)[C@H](CCCNC(=N)N)NC(=O)[C@@H](N)CCCCNC(=O)CC[C@H](NC(=O)CCCCCCCCCCCCCCCCCCC(=O)O)C(=O)O)C(=O)N[C@@H](CC(N)=O)C(=O)N[C@@H]([C@@H](C)O)C(=O)N[C@@H](C)C(=O)N[C@@H]([C@@H](C)O)C(=O)N1)[C@@H](C)O)C(=O)N1CCC[C@H]1C(=O)N[C@@H](CO)C(=O)N[C@@H](CO)C(=O)N[C@H](C(=O)N[C@@H](CC(N)=O)C(=O)N[C@H](C(=O)NCC(=O)N[C@@H](CO)C(=O)N[C@@H](Cc1c[nH]cn1)C(=O)N[C@H](C(=O)N[C@@H](Cc1ccc(O)cc1)C(N)=O)[C@@H](C)O)C(C)C)[C@@H](C)O, also called compound 44)",0.198 nM,24,4.75 nM

# Reference: patent US20140087995A1 (published 2014)
